Source: paper PMC8693265, “Investigation of PAS and CNBH domain interactions in hERG channels and effects of long-QT syndrome-causing mutations with surface plasmon resonance” (The Journal of Biological Chemistry, 2021)
Read-outs that look alike come from different tables or passages of the source.

B1: hERG PAS domain (residues 2-134) (domain or fragment, human, UniProt Q12809 2-134, looked up)
chain: PVRRGHVAPQNTFLDTIIRKFEGQSRKFIIANARVENCAVIYCNDGFCELCGYSRAEVMQRPCTCDFLHGPRTQRRAAAQIAQALLGAEERKVEIAFYRKDGSCFLCLVDVVPVKNEDGAVIMFILNFEVVME
notes: PAS domain (with PAS-cap) of the human ether-a-go-go-related gene (hERG, Kv11.1, KCNH2) channel, residues 2-134; Cloned in pETM11; The PAS domain expressed from mRNA in oocytes (pGH19) is written under this molecule in the functional rows; also called isolated PAS domain; free PAS domain; not shown: 6-His, N-terminal, cleaved
B2: hERG CNBH domain (residues 734-867) (domain or fragment, human, UniProt Q12809 734-867, looked up)
chain: RSLLQHCKPFRGATKGCLRALAMKFKTTHAPPGDTLVHAGDLLTALYFISRGSIEILRGDVVVAILGKNDIFGEPLNLYARPGKSNGDVRALTYCDLHKIHRDDLLEVLDMYPEFSDHFWSSLEITFNLRDTNM
notes: also called isolated CNBH domain; not shown: 6-His, N-terminal, cleaved

Key:
Test in all cases: SPR; one domain amine-coupled to a CM5 chip (~2000-3000 RU), the other injected as analyte over a range of concentrations (maximum 10 uM); Biacore T200, 25 C; 150 mM KCl, 1 mM TCEP, 10% glycerol, 0.05% Tween 20, 30 mM HEPES pH 7.5; fits with the two-state reaction model; for PAS/PAS and CNBH/CNBH the step of oligomerisation is not told
[1] = biological target: B2; conditions: both partners purified
[2] = biological target: B1; conditions: both partners purified
[3] = biological target: B2; conditions: both partners purified; remark: listed apart in the source
[4] = biological target: the molecule itself
[5] = biological target: the molecule itself; remark: listed apart in the source

Binder | Kd [1] [nM] | Kd [2] [nM] | Kd [3] [nM] | Kd [4] [nM] | Kd [5] [nM]
mEAG PAS domain (residues 7-136) (domain or fragment, mouse (from the name mEAG), UniProt Q60603 7-136, looked up, PAS domain of the mEAG channel, residues 7-136; not shown: 6-His, N-terminal, cleaved) RRGLVAPQNTFLENIVRRSNDTNFVLGNAQIVDWPIVYSNDGFCKLSGYHRAEVMQKSSACSFMYGELTDKDTVEKVRQTFENYEMNSFEILMYKKNRTPVWFFVKIAPIRNEQDKVVLFLCTFSDITAF | ~1700 | ~5600 |  |  | 
B1 |  |  | 1400 | 1600 | 400
hERG PAS domain with the LQTS-causing mutation E58D (domain or fragment, human, UniProt Q12809 2-134, looked up, PAS domain of the hERG (KCNH2) channel, residues 2-134, with the genetically occurring LQTS mutation E58D; also called PAS-E58D; not shown: 6-His, N-terminal, cleaved) PVRRGHVAPQNTFLDTIIRKFEGQSRKFIIANARVENCAVIYCNDGFCELCGYSRADVMQRPCTCDFLHGPRTQRRAAAQIAQALLGAEERKVEIAFYRKDGSCFLCLVDVVPVKNEDGAVIMFILNFEVVME | 200 |  | 600 |  | 
hERG PAS domain with the LQTS-causing mutation R20G (domain or fragment, human, UniProt Q12809 2-134, looked up, PAS domain of the hERG (KCNH2) channel, residues 2-134, with the genetically occurring LQTS mutation R20G; also called PAS-R20G; not shown: 6-His, N-terminal, cleaved) PVRRGHVAPQNTFLDTIIGKFEGQSRKFIIANARVENCAVIYCNDGFCELCGYSRAEVMQRPCTCDFLHGPRTQRRAAAQIAQALLGAEERKVEIAFYRKDGSCFLCLVDVVPVKNEDGAVIMFILNFEVVME | 2000 |  | 3600 |  | 
B2 |  |  |  | 2700 | 5000
